This note sets out measurements from the supplement of paper PMC9170038.

The test system of data set [1] is MS2 coat protein. The data set can be described thus: apparent KD of MS2 coat protein, switch ON state; designed switch direction (-1 OFF switch, 1 ON switch): -1; higher = weaker reporter binding. The conditions noted are these: FMN input: 0 or 200 uM; Eterna round: R93 (includes R88 designs). In outline: (§1)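 Normalised binding curves from single clusters were fitted, and the median fit for each design is given as apparent KD. The clusters held designed RNA switches transcribed on-chip from Illumina sequencing clusters. These were titrated with SNAP-549-labelled MS2 coat protein (twofold steps from 0.7 or 1.5 nM to 3 µM, 0.8–1.5 h to 10–20 min per step) in 100 mM Tris-HCl pH 7.5, 80 mM KCl, 4 mM MgCl2, without or with constant ligand.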

For data set [2], the system named is MS2 coat protein. Kind of data set: apparent KD of MS2 coat protein, switch OFF state (with FMN for OFF switches, without FMN for ON switches); designed switch direction (-1 OFF switch, 1 ON switch): -1; higher = weaker reporter binding. The conditions noted are these: FMN input: 0 or 200 uM; Eterna round: R93 (includes R88 designs). In outline:
as §1

Regarding “AAAAAACAUGAGGAUCACCCAUGUAAGGAUAUGUAAAAUAAAAGAAAAAUAAAGAAAAGCAGAAGGUACAUGUA [JL wbt mod 16]”, the “apparent KD of MS2 coat protein” value was 40.4 nM with MS2 coat protein [1] and 44.5 nM in the data set on MS2 coat protein [2].

As to “AAUAAGUCAGGAUAUACUAUGUCAGGAGAGAGACUGACUAUGUAGAAGGGACAUGAGGAUCACCCAUGUAAUAA [JR_Exclusion4_Sub5]”, the entries for the “apparent KD of MS2 coat protein” value in the data set with MS2 coat protein [1] and in the data set on MS2 coat protein [2] were 47.4 nM and 36.1 nM, respectively.

For “AACAGUACAGGAUAUACAUGAGGAUCACCCAUGUGAAAAUUAAGUGGGAGACCACAAGGUAGAAGGGUACUGGA [Mat - Exclusion 3 - Eli mod - D65]”, the “apparent KD of MS2 coat protein” value in the data set on MS2 coat protein [1] is 176 nM; in the data set on MS2 coat protein [2], 57.7 nM.

As to “AAGAAAGCAGGAUAUACAUGAGGAUCACCCAUGUAAAAGAAAGAAGGGAAAGAGAAAAGUAGAAGGGCUAAGAA [Wehemibre Necho II]”, the “apparent KD of MS2 coat protein” value in the data set on MS2 coat protein [1] turned out to be 20.9 nM; in the data set on MS2 coat protein [2], 38.7 nM.

Regarding “AAAAAGUGAGGAUAUACGUUGAAGAGAAAACACAUCCAGGCGUAGAAGGCACAUGAGGAUCACCCAUGUACAAA [Ex4 Malc#7]”, the “apparent KD of MS2 coat protein” value is 23.4 nM with MS2 coat protein [1] and 19.8 nM with MS2 coat protein [2].

Take “AAAACACAUGAGGAUCACCCAUGUGAGGAUAUGCGAGUGAAAAUAAAAAUAAAACAUAGCAGAAGGCACAAGGA [Amethyst 80]”: the “apparent KD of MS2 coat protein” value in the data set with MS2 coat protein [1] was 35.9 nM; with MS2 coat protein [2], 45 nM.

As to “AAGAAGGAAGGAUAUACAUGAGGAUCACCCAUGUAAAAGAAAGAAAAGGGAAAGAAAAGUAGAAGGUCCAAGAA [Djeserkheperure-setpenre Horemheb]”, the “apparent KD of MS2 coat protein” value in the data set on MS2 coat protein [1] was 30.4 nM; with MS2 coat protein [2] it was 41.6 nM.

As for “GUGUACAGAGGAUAUACAUGAGCAUGGAAACAUGCAGGAUCACAUGAGGAUCACCCAUGUAGAAGGCUGUACAC [Ex2: 732]”, the figures for the “apparent KD of MS2 coat protein” value in the data set on MS2 coat protein [1] and with MS2 coat protein [2] were 35.1 nM and 12 nM, respectively.

Take “AAAGGACGAGGAUAUACAUGAGGAUCACCCAUGUAAAAAACGUAAGAAAAGAAGUUAUGUAGAAGGCGUCCAAA [69%, Moding Meechl, 14]”: the figures for the “apparent KD of MS2 coat protein” value in the data set on MS2 coat protein [1] and in the data set on MS2 coat protein [2] were 15.5 nM and 20.6 nM, respectively.

Consider “CACGUACAUGAGGAUCACCCAUGUUAGGAUAUGCCGAAAAAAAAAAAAAAAAAAAUCAGCAGAAGGAACGAAAC [Bilbo Confounded 19 - Jieux - Exclusion 1]”, for which the “apparent KD of MS2 coat protein” value turned out to be 40.2 nM with MS2 coat protein [1] and 36 nM in the data set on MS2 coat protein [2].

Regarding “AACUGACAUGAGGAUCACCCAUGUCAGGAUAUGACAUCGAGAAAAAAAAAAAUCGUUGUCAGAAGGGACAUGAA [Design 78: Sub-opt T]”, the “apparent KD of MS2 coat protein” value in the data set on MS2 coat protein [1] is 12.4 nM; with MS2 coat protein [2] it was 13.6 nM.

With “AAAAAACAUGAGGAUCACCCAUGUGAGGAUAUGCAAAACCCAUAUAAAAAGAGAAAAAGCAGAAGGCACAAAAA [wbt round 1 mod]”, the figures for the “apparent KD of MS2 coat protein” value in the data set on MS2 coat protein [1] and in the data set on MS2 coat protein [2] were 25.8 nM and 40.4 nM, respectively.

On to “AAAAAGUGAGGAUAUGGUAAAAAAAAAAAAAAAAAAAAACUCCAGAAGGCACAUGAGGAUCACCCAUGUAAAAA [Jolly's Folly - Jieux - Exclusion 4]”, for which the “apparent KD of MS2 coat protein” value in the data set on MS2 coat protein [1] worked out at 58.5 nM; in the data set on MS2 coat protein [2] it was 5290 nM.

As for “GCUUGGGAAGGAUAUACAUGAGGAUCACCCAUGUGAGAGAAAAAAGUGAGAAAGAAAAGUAGAAGGUCCUGAGG [salish99-ex3-108]”, the “apparent KD of MS2 coat protein” value with MS2 coat protein [1] was found to be 71.2 nM; in the data set on MS2 coat protein [2], 152 nM.

Turning to “AAUGCGGCAGGAUAUACAUGAGGAUCACCCAUGUAGAUCAGAUAUAUGGGAAAGCCAUGUAGAAGGGCCGCAAA [Ex 3May 61]”, the “apparent KD of MS2 coat protein” value was determined as 94.6 nM with MS2 coat protein [1] and 24.8 nM with MS2 coat protein [2].

For “AGGAGACAUGAGGAUCACCCAUGUUAGGAUAUGAACGAAAAUAAAUAAAAAUAAAAGUUCAGAAGGGACGAAAA [66%, Wbt, 8]”, the entries for the “apparent KD of MS2 coat protein” value in the data set with MS2 coat protein [1] and with MS2 coat protein [2] were 43.3 nM and 44.7 nM, respectively.

Consider “GAAAAGAAAGGAUAUAAAACAGAGGAUAUACAUAAAUAAAAACAUGAGGAUCACCCAUGUAGAAGGCUGAAAAG [Meechl Ex2 R2 m2]”, for which the results for the “apparent KD of MS2 coat protein” value with MS2 coat protein [1] and in the data set on MS2 coat protein [2] were 33.2 nM and 20.5 nM, respectively.

Take “AGCUAGUCAGGAUAUACGAACAUGUCGGUGGACGUGAAGGGACAUGAGGAUCACCCAUGUAGAAGGGACUAGCA [salish99-Ex2-21]”: the “apparent KD of MS2 coat protein” value was determined as 41.3 nM with MS2 coat protein [1] and 91.5 nM with MS2 coat protein [2].

“AGUAGUACAGGAUAUACAUGAGGAUCACCCAUGUGAAAAUAAAGUGGCGUACCACAAAGUAGAAGGGUACUACA [Mat - Exclusion 3 - JL mod - D35]”: the “apparent KD of MS2 coat protein” value in the data set with MS2 coat protein [1] was determined as 27.9 nM; in the data set with MS2 coat protein [2], 138 nM.

Turning to “AAGAAAGCAGGAUAUACAAAAUAAAAGAAAAGAAAGAAAGAACAUGAGGAUCACCCAUGUAGAAGGGCUAAGAA [Khahotepre Sobekhotep VI]”, the “apparent KD of MS2 coat protein” value was 38 nM in the data set on MS2 coat protein [1] and 32.3 nM in the data set on MS2 coat protein [2].
